Test results reported in the supplement of paper PMC11136658.

Test system: peptide library, one residue held at a place counted from the Y acceptor
Test: relative phosphorylation of the sub-library (ratio to the mean residue at this position); higher = residue favoured
In short: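 Every value reflects phosphorylation relative to the mean randomized residue. The sum of the 18 randomized residues, or 16 in the Ser/Thr-free library, served to normalize intensities at each position, which were then multiplied by that number. Intensities came from phosphorimaging with ImageQuant of biotinylated Tyr-centred peptides captured on streptavidin membranes after 90 min with purified recombinant kinases and 50 μM ATP plus γ-32P-ATP.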

Chain of TYK2, construct: aa871-end, human (P29597 871-1187, looked up): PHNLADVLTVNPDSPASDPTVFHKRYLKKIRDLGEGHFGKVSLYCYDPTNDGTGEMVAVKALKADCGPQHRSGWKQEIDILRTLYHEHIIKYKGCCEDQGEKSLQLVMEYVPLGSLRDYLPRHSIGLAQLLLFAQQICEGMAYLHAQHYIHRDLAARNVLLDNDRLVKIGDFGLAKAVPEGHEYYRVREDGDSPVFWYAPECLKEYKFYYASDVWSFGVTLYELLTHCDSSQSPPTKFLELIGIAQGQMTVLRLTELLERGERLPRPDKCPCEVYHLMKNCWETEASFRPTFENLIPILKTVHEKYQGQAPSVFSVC

In the case of “TYK2, construct: aa871-end, human (from UniProt P29597)”, the relative phosphorylation (A fixed, at +1) is reported as 1.02, the relative phosphorylation (A fixed, at +2) is reported as 0.925 and the relative phosphorylation (A fixed, at +3) is reported as 0.773. The relative phosphorylation (A fixed, at +4) was 0.912, the relative phosphorylation (A fixed, at +5) was 0.996 and the relative phosphorylation (A fixed, at -1) was 1.11. For the same substance, the relative phosphorylation (A fixed, at -2) was 0.912, the relative phosphorylation (A fixed, at -3) was 0.961 and the relative phosphorylation (A fixed, at -4) was 1.1. For the same substance, the relative phosphorylation (A fixed, at -5) was 1.01, the relative phosphorylation (D fixed, at +1) was 0.279 and the relative phosphorylation (D fixed, at +2) was 0.572. For the same substance, the relative phosphorylation (D fixed, at +3) was 0.536, the relative phosphorylation (D fixed, at +4) was 0.798 and the relative phosphorylation (D fixed, at +5) was 0.795. The relative phosphorylation (D fixed, at -1) was 1.27, the relative phosphorylation (D fixed, at -2) was 0.902 and the relative phosphorylation (D fixed, at -3) was 0.975. The relative phosphorylation (D fixed, at -4) was 0.881, the relative phosphorylation (D fixed, at -5) was 0.949 and the relative phosphorylation (E fixed, at +1) was 0.484. For the same substance, the relative phosphorylation (E fixed, at +2) was 0.712, the relative phosphorylation (E fixed, at +3) was 0.473 and the relative phosphorylation (E fixed, at +4) was 0.923. The relative phosphorylation (E fixed, at +5) was 0.803, the relative phosphorylation (E fixed, at -1) was 0.995 and the relative phosphorylation (E fixed, at -2) was 0.977. For the same substance, the relative phosphorylation (E fixed, at -3) was 0.946, the relative phosphorylation (E fixed, at -4) was 1.27 and the relative phosphorylation (E fixed, at -5) was 0.869. It also gave a relative phosphorylation (F fixed, at +1) of 1.45, a relative phosphorylation (F fixed, at +2) of 1.04 and a relative phosphorylation (F fixed, at +3) of 1.17. The relative phosphorylation (F fixed, at +4) was 1.05, the relative phosphorylation (F fixed, at +5) was 1.02 and the relative phosphorylation (F fixed, at -1) was 1.24. For the same substance, the relative phosphorylation (F fixed, at -2) was 0.932, the relative phosphorylation (F fixed, at -3) was 1.02 and the relative phosphorylation (F fixed, at -4) was 1.18. For the same substance, the relative phosphorylation (F fixed, at -5) was 1.04, the relative phosphorylation (G fixed, at +1) was 0.642 and the relative phosphorylation (G fixed, at +2) was 0.869. It also gave a relative phosphorylation (G fixed, at +3) of 0.853, a relative phosphorylation (G fixed, at +4) of 1.05 and a relative phosphorylation (G fixed, at +5) of 1.1. For the same substance, the relative phosphorylation (G fixed, at -1) was 1.1, the relative phosphorylation (G fixed, at -2) was 1.14 and the relative phosphorylation (G fixed, at -3) was 1.04. The relative phosphorylation (G fixed, at -4) was 1.24, the relative phosphorylation (G fixed, at -5) was 1.21 and the relative phosphorylation (H fixed, at +1) was 1.3. For the same substance, the relative phosphorylation (H fixed, at +2) was 0.828, the relative phosphorylation (H fixed, at +3) was 1.07 and the relative phosphorylation (H fixed, at +4) was 1.15. It also gave a relative phosphorylation (H fixed, at +5) of 1, a relative phosphorylation (H fixed, at -1) of 1.22 and a relative phosphorylation (H fixed, at -2) of 1.09. The relative phosphorylation (H fixed, at -3) was 1.04, the relative phosphorylation (H fixed, at -4) was 0.906 and the relative phosphorylation (H fixed, at -5) was 0.96. It also gave a relative phosphorylation (I fixed, at +1) of 1.79, a relative phosphorylation (I fixed, at +2) of 0.873 and a relative phosphorylation (I fixed, at +3) of 1.69. It also gave a relative phosphorylation (I fixed, at +4) of 0.909, a relative phosphorylation (I fixed, at +5) of 0.957 and a relative phosphorylation (I fixed, at -1) of 1.05. It also gave a relative phosphorylation (I fixed, at -2) of 1.06, a relative phosphorylation (I fixed, at -3) of 0.9 and a relative phosphorylation (I fixed, at -4) of 1.1. The relative phosphorylation (I fixed, at -5) was 0.983, the relative phosphorylation (K fixed, at +1) was 0.544 and the relative phosphorylation (K fixed, at +2) was 1.29. For the same substance, the relative phosphorylation (K fixed, at +3) was 0.806, the relative phosphorylation (K fixed, at +4) was 1.24 and the relative phosphorylation (K fixed, at +5) was 1.1. The relative phosphorylation (K fixed, at -1) was 0.573, the relative phosphorylation (K fixed, at -2) was 0.956 and the relative phosphorylation (K fixed, at -3) was 0.959. For the same substance, the relative phosphorylation (K fixed, at -4) was 0.86, the relative phosphorylation (K fixed, at -5) was 0.995 and the relative phosphorylation (L fixed, at +1) was 1.58. For the same substance, the relative phosphorylation (L fixed, at +2) was 0.927, the relative phosphorylation (L fixed, at +3) was 1.27 and the relative phosphorylation (L fixed, at +4) was 0.899. The relative phosphorylation (L fixed, at +5) was 1.02, the relative phosphorylation (L fixed, at -1) was 1.05 and the relative phosphorylation (L fixed, at -2) was 1.07. For the same substance, the relative phosphorylation (L fixed, at -3) was 1.01, the relative phosphorylation (L fixed, at -4) was 1.04 and the relative phosphorylation (L fixed, at -5) was 1.08. The relative phosphorylation (M fixed, at +1) was 1.59, the relative phosphorylation (M fixed, at +2) was 1.02 and the relative phosphorylation (M fixed, at +3) was 1.33. The relative phosphorylation (M fixed, at +4) was 1.17, the relative phosphorylation (M fixed, at +5) was 0.983 and the relative phosphorylation (M fixed, at -1) was 0.976. For the same substance, the relative phosphorylation (M fixed, at -2) was 0.858, the relative phosphorylation (M fixed, at -3) was 0.983 and the relative phosphorylation (M fixed, at -4) was 0.967. It also gave a relative phosphorylation (M fixed, at -5) of 0.959, a relative phosphorylation (N fixed, at +1) of 0.565 and a relative phosphorylation (N fixed, at +2) of 1.22. The relative phosphorylation (N fixed, at +3) was 0.988, the relative phosphorylation (N fixed, at +4) was 0.981 and the relative phosphorylation (N fixed, at +5) was 0.979. It also gave a relative phosphorylation (N fixed, at -1) of 0.98, a relative phosphorylation (N fixed, at -2) of 1.2 and a relative phosphorylation (N fixed, at -3) of 1.2. It also gave a relative phosphorylation (N fixed, at -4) of 0.925, a relative phosphorylation (N fixed, at -5) of 1.09 and a relative phosphorylation (P fixed, at +1) of 0.381. The relative phosphorylation (P fixed, at +2) was 1.04, the relative phosphorylation (P fixed, at +3) was 0.756 and the relative phosphorylation (P fixed, at +4) was 0.756. It also gave a relative phosphorylation (P fixed, at +5) of 1.22, a relative phosphorylation (P fixed, at -1) of 1.18 and a relative phosphorylation (P fixed, at -2) of 0.892. For the same substance, the relative phosphorylation (P fixed, at -3) was 1.17, the relative phosphorylation (P fixed, at -4) was 1.1 and the relative phosphorylation (P fixed, at -5) was 1.09. For the same substance, the relative phosphorylation (Q fixed, at +1) was 0.973, the relative phosphorylation (Q fixed, at +2) was 1.07 and the relative phosphorylation (Q fixed, at +3) was 0.967. It also gave a relative phosphorylation (Q fixed, at +4) of 1.15, a relative phosphorylation (Q fixed, at +5) of 0.908 and a relative phosphorylation (Q fixed, at -1) of 0.854. The relative phosphorylation (Q fixed, at -2) was 1, the relative phosphorylation (Q fixed, at -3) was 0.981 and the relative phosphorylation (Q fixed, at -4) was 1.02. The relative phosphorylation (Q fixed, at -5) was 1.03, the relative phosphorylation (R fixed, at +1) was 0.869 and the relative phosphorylation (R fixed, at +2) was 1.51. The relative phosphorylation (R fixed, at +3) was 1.19, the relative phosphorylation (R fixed, at +4) was 1.31 and the relative phosphorylation (R fixed, at +5) was 1.19. It also gave a relative phosphorylation (R fixed, at -1) of 0.64, a relative phosphorylation (R fixed, at -2) of 1.08 and a relative phosphorylation (R fixed, at -3) of 0.935. The relative phosphorylation (R fixed, at -4) was 1.01, the relative phosphorylation (R fixed, at -5) was 1.02 and the relative phosphorylation (S fixed, at +1) was 0.761. It also gave a relative phosphorylation (S fixed, at +2) of 1.06, a relative phosphorylation (S fixed, at +3) of 0.951 and a relative phosphorylation (S fixed, at +4) of 0.957. It also gave a relative phosphorylation (S fixed, at +5) of 1.03, a relative phosphorylation (S fixed, at -1) of 0.98 and a relative phosphorylation (S fixed, at -2) of 0.986. The relative phosphorylation (S fixed, at -3) was 0.995, the relative phosphorylation (S fixed, at -4) was 0.743 and the relative phosphorylation (S fixed, at -5) was 0.91. For the same substance, the relative phosphorylation (T fixed, at +1) was 0.967, the relative phosphorylation (T fixed, at +2) was 1.01 and the relative phosphorylation (T fixed, at +3) was 1.02. For the same substance, the relative phosphorylation (T fixed, at +4) was 0.876, the relative phosphorylation (T fixed, at +5) was 1.01 and the relative phosphorylation (T fixed, at -1) was 0.922. The relative phosphorylation (T fixed, at -2) was 0.953, the relative phosphorylation (T fixed, at -3) was 0.925 and the relative phosphorylation (T fixed, at -4) was 0.73. It also gave a relative phosphorylation (T fixed, at -5) of 0.769, a relative phosphorylation (V fixed, at +1) of 1.42 and a relative phosphorylation (V fixed, at +2) of 0.823. For the same substance, the relative phosphorylation (V fixed, at +3) was 1.16, the relative phosphorylation (V fixed, at +4) was 0.857 and the relative phosphorylation (V fixed, at +5) was 0.882. For the same substance, the relative phosphorylation (V fixed, at -1) was 0.949, the relative phosphorylation (V fixed, at -2) was 0.983 and the relative phosphorylation (V fixed, at -3) was 0.963. The relative phosphorylation (V fixed, at -4) was 0.786, the relative phosphorylation (V fixed, at -5) was 0.875 and the relative phosphorylation (W fixed, at +1) was 1.37. The relative phosphorylation (W fixed, at +2) was 1.2, the relative phosphorylation (W fixed, at +3) was 0.996 and the relative phosphorylation (W fixed, at +4) was 1.01. It also gave a relative phosphorylation (W fixed, at +5) of 1, a relative phosphorylation (W fixed, at -1) of 0.895 and a relative phosphorylation (W fixed, at -2) of 1.01. The relative phosphorylation (W fixed, at -3) was 0.999, the relative phosphorylation (W fixed, at -4) was 1.15 and the relative phosphorylation (W fixed, at -5) was 1.16. It also gave a relative phosphorylation (pThr fixed, at +1) of 0.332, a relative phosphorylation (pThr fixed, at +2) of 0.465 and a relative phosphorylation (pThr fixed, at +3) of 0.257. For the same substance, the relative phosphorylation (pThr fixed, at +4) was 0.549, the relative phosphorylation (pThr fixed, at +5) was 0.579 and the relative phosphorylation (pThr fixed, at -1) was 0.969. It also gave a relative phosphorylation (pThr fixed, at -2) of 0.712, a relative phosphorylation (pThr fixed, at -3) of 0.903 and a relative phosphorylation (pThr fixed, at -4) of 0.863. It also gave a relative phosphorylation (pThr fixed, at -5) of 0.929, a relative phosphorylation (pTyr fixed, at +1) of 1.02 and a relative phosphorylation (pTyr fixed, at +2) of 0.822. For the same substance, the relative phosphorylation (pTyr fixed, at +3) was 0.517, the relative phosphorylation (pTyr fixed, at +4) was 0.919 and the relative phosphorylation (pTyr fixed, at +5) was 0.694. The relative phosphorylation (pTyr fixed, at -1) was 1.51, the relative phosphorylation (pTyr fixed, at -2) was 0.98 and the relative phosphorylation (pTyr fixed, at -3) was 1.1. For the same substance, the relative phosphorylation (pTyr fixed, at -4) was 1.22 and the relative phosphorylation (pTyr fixed, at -5) was 1.07.
